This is an account of results in patent US20240141045A1.

The test deals with PD-1 Fc fusion protein (UniProt Q15116). As to the kind of experiment: SPR (Biacore 3000), recombinant PD-1 Fc immobilised on CM5 chip, fusion protein injected. A general note: In SPR one partner is held on a chip, and binding of the other changes the refractive index at the surface.
PD-1 Fc fusion protein, sequence (Q15116 25-167 limits assumed): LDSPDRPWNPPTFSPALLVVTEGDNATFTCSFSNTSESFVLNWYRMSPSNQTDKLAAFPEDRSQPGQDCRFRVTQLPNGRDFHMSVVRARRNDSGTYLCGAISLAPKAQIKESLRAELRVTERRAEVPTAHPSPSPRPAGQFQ

B1: Anti-PD1 (VH7-VL6) scFv-Fc-ADA2 (Fc fusion, part only; not given: scFv linker and Fc, not shown: a dimerising Fc or GST)
scFv (part 1 of 2), part: QVQLVQSGVEVKKPGASVKVSCKASGYTFTNYYMYWVRQAPGQGLEWMGGINPSNGGTNFNEKFKNRVTLTTDSSTTTAYMELKSLQFDDTAVYYCARRDYRFDMGFDYWGQGTTVTVSSEIVLTQSPATLSLSPGERATLSCRASKGVSTSGYSYLHWYQQKPGQAPRLLIYLASYLESGVPARFSGSGSGTDFTLTISSLEPEDFAVYYCQHSRDLPLTFGGGTKVEIK
scFv (part 2 of 2), part: GGGGSGGGGSIDETRAHLLLKEKMMRLGGRLVLNTKEELANERLMTLKIAEMKEAMRTLIFPPSMHFFQAKHLIERSQVFNILRMMPKGAALHLHDIGIVTMDWLVRNVTYRPHCHICFTPRGIMQFRFAHPTPRPSEKCSKWILLEDYRKRVQNVTEFDDSLLRNFTLVTQHPEVIYTNQNVVWSKFETIFFTISGLIHYAPVFRDYVFRSMQEFYEDNVLYMEIRARLLPVYELSGEHHDEEWSVKTYQEVAQKFVETHPEFIGIKIIYSDHRSKDVAVIAESIRMAMGLRIKFPTVVAGFDLVGHEDTGHSLHDYKEALMIPAKDGVKLPYFFHAGETDWQGTSIDRNILDALMLNTTRIGHGFALSKHPAVRTYSWKKDIPIEVCPISNQVLKLVSDLRNHPVATLMATGHPMVISSDDPAMFGAKGLSYDFYEVFMGIGGMKADLRTLKQLAMNSIKYSTLLESEKNTFMEIWKKRWDKFIADVATK
Regarding B1, the Kd (commonly the free concentration of one partner at which half of the binding sites on the other are occupied at equilibrium, for simple one-to-one binding) stood at 563 pM.
